From patent US20200347130A1 (JIANGSU HENGRUI MEDICINE, published 2020) come the findings set out here.

Usually EC50 stands for the concentration at which the effect is half-maximal. A word on the IC50: it is the concentration at which inhibition is half-maximal. A high value points to a need for much substance.

Experiment [1] concerns the target T1, Full-length human CD96 on CHO-S cells (human, UniProt P40200 22-585).
T1 construct: also called CD96-CHOs; hCD96-CHOs
T1 sequence: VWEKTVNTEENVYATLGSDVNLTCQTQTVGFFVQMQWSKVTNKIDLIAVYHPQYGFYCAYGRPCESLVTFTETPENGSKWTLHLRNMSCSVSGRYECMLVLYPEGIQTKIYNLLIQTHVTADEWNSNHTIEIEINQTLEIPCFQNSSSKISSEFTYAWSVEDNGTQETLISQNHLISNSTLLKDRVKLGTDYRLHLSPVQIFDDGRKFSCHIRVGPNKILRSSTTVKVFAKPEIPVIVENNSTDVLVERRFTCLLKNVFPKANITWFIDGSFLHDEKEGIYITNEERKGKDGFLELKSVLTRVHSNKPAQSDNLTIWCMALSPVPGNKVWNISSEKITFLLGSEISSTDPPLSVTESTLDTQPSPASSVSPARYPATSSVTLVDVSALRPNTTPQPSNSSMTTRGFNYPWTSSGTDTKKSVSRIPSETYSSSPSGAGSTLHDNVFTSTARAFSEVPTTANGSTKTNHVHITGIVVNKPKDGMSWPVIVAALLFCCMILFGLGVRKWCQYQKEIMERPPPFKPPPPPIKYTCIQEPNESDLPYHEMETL
Kind of experiment: cell ELISA, fixed CD96-overexpressing CHO-S cells. As to the method:
The binding capacity of the anti-CD96 antibody was tested by binding experiments of the antibody to human CD96 protein overexpressing CHO-S cells. The full-length CD96 plasmid was transfected into CHO-S cells by electrotransfection, and cells were then screened for two weeks under pressure for the detection of the expression of CD96. After the over-expressing cells were fixed at the bottom of the 96-well plate, the density of the signal after adding the antibody was used to judge the binding activity of the antibody to CD96 overexpressing CHO-S cells. The specific experimental method is as follows:
The cells were seeded at a density of 9×10⁴/100 μL/well in a 96-well plate and cultured overnight. After aspirating the supernatant, the plate was washed once with PBS, subsequently, 100 μl/well immunostaining fixation solution (Biyuntian, P0098) was added and fixed for one hour at room temperature, and the plate was washed three times with PBS. Once the liquid was discarded, 250 μl/well of 5% skim milk (BD, 232100) blocking solution diluted with PBS was added, and the plate was blocked in an incubator at 37° C. for 2.5 hours. After blocking, the blocking solution was discarded, the plate was washed 4 times with PBST buffer (pH 7.4 PBS containing 0.05% tween-20), followed by diluting 50 μl/well of different concentrations of the antibodies (hybridoma purification antibody or humanized antibody) to be tested the plate was incubated in an incubator at 37° C. for 2 hours. After incubation, the plate was wash 4 times with PBST. […] After washing the plate 4 times with PBST, 50 μl/well of TMB chromogenic substrate (KPL, Cat No. 52-00-03) was added, the plate was incubated at room temperature for 10-25 min, followed by adding 50 μl/well of 1M H₂SO₄ to stop the reaction. The absorption value was read at 450 nm with a NOVOStar microplate reader, and the EC50 value of the CD96 antibodies to CD96 overexpressing CHO-S cells was calculated (see FIG. 1 and Table 15).
On the technique in general: An ELISA detects its analyte on a solid surface through an enzyme-linked reagent.

The target of experiment [2] is T2, CD96 extracellular region with His tag (CD96-His) (human, UniProt P40200 22-519).
T2 construct: also called CD96-ECD-His; Bio-CD96-His (biotin-labelled form)
T2 sequence: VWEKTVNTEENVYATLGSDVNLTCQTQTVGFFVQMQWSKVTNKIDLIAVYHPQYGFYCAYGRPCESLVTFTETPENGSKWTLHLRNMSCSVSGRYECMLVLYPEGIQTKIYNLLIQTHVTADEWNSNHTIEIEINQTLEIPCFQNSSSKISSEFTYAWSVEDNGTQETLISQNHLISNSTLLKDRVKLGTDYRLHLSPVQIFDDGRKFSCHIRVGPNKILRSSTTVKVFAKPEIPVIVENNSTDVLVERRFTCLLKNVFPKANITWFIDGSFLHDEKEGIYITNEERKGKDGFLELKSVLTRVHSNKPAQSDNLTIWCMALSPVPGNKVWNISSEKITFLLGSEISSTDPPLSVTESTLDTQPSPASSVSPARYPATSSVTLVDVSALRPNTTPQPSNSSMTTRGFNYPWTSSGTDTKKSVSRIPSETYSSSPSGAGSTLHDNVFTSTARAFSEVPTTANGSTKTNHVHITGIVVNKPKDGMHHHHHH
Kind of experiment: ELISA, CD96-His coated. How it is done: The binding capacity of the anti-CD96 antibody was tested by ELISA to determine the binding of the antibody to human CD96 protein. The His-tagged CD96 fusion protein was used to coat the microtiter plate, and the intensity of the signal after adding with the antibody was used for evaluating the binding activity of the antibody and CD96. The specific experimental method is as follows:
CD96-His with the sequence of SEQ ID NO: 4 prepared in Embodiment 1 was diluted to a concentration of 2 μg/ml with PBS buffer (Shanghai Yuanpei Biotechnology Co., Ltd. Cat No. B320), pH 7.4, added to a 96-well microtiter plate (Corning, Cat No. CLS3590-100EA) at a volume of 50 μl/well, and placed in an incubator at 37° C. for 2 hours. After discarding the liquid, 250 μl/well of 5% skim milk (BD, Cat No. 232100) blocking solution diluted with PBS was added, and the plate was incubated at 37° C. for 2.5 hours or at 4° C. overnight (16-18 hours) for blocking. After blocking, the blocking solution was discarded, and the plate was washed 4 times with PBST buffer (pH 7.4 PBS containing 0.05% tween-20). 50 μl/well of different concentrations of the antibodies to be tested (hybridoma purification antibody or humanized antibody) diluted with sample dilution was added, and the plate was incubated in an incubator at 37° C. for 1 hour. […] After washing the plate 4 times with PBST, 50 μl/well of TMB chromogenic substrate (KPL, Cat No. 52-00-03) was added, and the plate was incubated at room temperature for 5-15 minutes, followed by adding 50 μl/well of 1M H₂SO₄ to stop the reaction. The absorption value was read at 450 nm with a NOVOStar microplate reader, and the EC50 value of the binding of CD96 antibody to human CD96 was calculated (see Table 13).

The target of experiment [3] is T2, CD96 extracellular region with His tag …. Kind of experiment: blocking cell ELISA: antibody premixed with Bio-CD96-His (0.5 ug/mL), binding to fixed CD155-CHO cells. As to the method: CD155-CHO cells (constructed by Shanghai Hengrui) were seeded in 96-well culture plates at a density of 9×10⁴/100 μL/well and cultured overnight. After aspirating the supernatant, the plate was washed once with PBS, 100 μl/well of immunostaining fixation solution (Biyuntian, Cat No. P0098) was added and fixed for one hour at room temperature, and the plate was washed three times with PBS. After discarding the liquid, 250 μl/well of 5% skim milk (BD, Cat No. 232100) blocking solution diluted with PBS was added, and the plate was blocked in an incubator at 37° C. for 2.5 hours. After blocking, the blocking solution was discarded, subsequently, the plate was washed 4 times with PBST buffer (pH 7.4 PBS containing 0.05% tween-20). 50 μl/well of antigen-antibody pre-incubation solution (gradient concentrations of the hybridoma antibody to be tested and CD96-Fc at a final concentration of 0.5 μg/mL were premixed at 37° C. for 30 minutes, or gradient concentrations of humanized antibody samples and Bio-CD96-His at a final concentration of 0.5 μg/mL were premixed at 37° C. for 30 minutes) (Biotin-labeled kit, Dongren Chemical, Cat No. LK03) was added, and the plate was incubated in an incubator at 37° C. for 2 hours. After incubation, the reaction solution in the microtiter plate was discarded, the plate was washed 4 times with PBST, and 50 μl/well of HRP-labeled goat anti-human secondary antibody (Jackson Immuno Research, Cat No. 109-035-003) diluted with sample dilution or HRP-labeled streptavidin diluted with sample dilution (Sigma, Cat No. 52438) was added, followed by incubating at 37° C. for 1 hour. After washing the plate 4 times with PBST, 50 μl/well of TMB chromogenic substrate (KPL, Cat No. 52-00-03) was added, the plate was incubated at room temperature for 10-20 minutes, followed by adding 50 μl/well of 1M H₂SO₄ to stop the reaction. The absorption value was read at 450 nm with a NOVOStar microplate reader, and the EC50 value of the effect of CD96 antibody on blocking the binding between the antigens and CD155-CHO cells was calculated (see FIG. 2 and Table 16).

B1: h1719-003 (antibody, V domains shown)
VH: EVTLKESGPVLVKPTETLTLTCTVSGFSLSSYGVSWVRQPPGKGLEWLGVIWGDGNTNYHSVLISRLTISKDTSKSQVVLTLTNMDPVDTATYYCAKNNYYGSRYGYPMDYWGQGTTVTVSS
VL: DIQMTQSPSSVSASVGDRVTITCKATQDVGTAVAWYQQKPGKAPKLLIYWASTRHTGVPSRFSGSGSGTDFTLTISSLQPEDFATYYCQQYGSSVLTFGGGTKVEIK
notes: also called M719-003
B1: the results for the EC50 in experiment [1] and in experiment [2] were 0.028 nM and 0.085 nM, respectively. This molecule registered an IC50 in experiment [3] of 0.096 nM.
